The record followed here is PMC3520109 (mBio, 2012).

One data set deals with 43A-c. Conditions: read-out: apparent Km; 100 mM citrate pH 6, 1 g/liter BSA, 50°C.
Substrate in the data set “purified protein”: O=[N+]([O-])c1ccc(O[C@@H]2O[C@H](CO)[C@@H](O)[C@H](O)[C@H]2O)cc1
Description: purified protein. Conditions: 100 mM citrate pH 6, 1 g/liter BSA, 50°C.

A word on the Km: it is the concentration of substrate that gives half-maximal velocity. As for `O=[N+]([O-])c1ccc(O[C@@H]2OC[C@@H](O)[C@H](O)[C@H]2O)cc1` [pNPX], the Km in the data set with 43A-c was found to be 600 µM.

B1: Bgl1C (Thermobifida fusca) (protein)
chain: TSQSTTPLGNLEETPKPDIRFPSDFVWGVATASFQIEGSTTADGRGPSIWDTFCATPGKVENGDTGDPACDHYNRYRDDVALMRELGVGAYRFSIAWPRIQPEGKGTPVEAGLDFYDRLVDCLLEAGIEPWPTLYHWDLPQALEDAGGWPNRDTAKRFADYAEIVYRRLGDRITNWNTLNEPWCSAFLGYASGVHAPGRQEPAAALAAAHHLMLGHGLAAAVMRDLAGQAGRSVRIGVAHNQTTVRPYTDSEADRDAARRIDALRNRIFTEPLVKGRYPEDLIEDVAAVTDYSFVQDGDLKTISANLDMMGVNFYNPSWVSGNRENGGSDRLPDEGYSPSVGSEHVVEVDPGLPVTAMGWPIDPTGLYDTLTRLANDYPGLPLYITENGAAFEDKVVDGAVHDTERIAYLDSHLRAAHAAIEAGVPLKGYFAWSFMDNFEWALGYGKRFGIVHVDYESQTRTVKDSGWWYSRVMRNGGIFGQE
A word on the kcat: it is the maximal rate divided by the concentration of active sites. In the case of B1, in “purified protein”, the Km amounted to 600 µM and the kcat was determined as 2.08 s⁻¹.
